B1: genetic element with four Arc operators (dsDNA)
DNA 1: GATCTATGATAGAAGCACTCTACTATACTCATCACGAAACGGAGGATCTATGATAGAAGCACTCTACTATACTCATCACGAAACGGAGGATCTATGATAGAAGCACTCTACTATACTCATCACGAAACGGAGGATCTATGATAGAAGCACTCTACTAT
DNA 2: ATAGTAGAGTGCTTCTATCATAGATCCTCCGTTTCGTGATGAGTATAGTAGAGTGCTTCTATCATAGATCCTCCGTTTCGTGATGAGTATAGTAGAGTGCTTCTATCATAGATCCTCCGTTTCGTGATGAGTATAGTAGAGTGCTTCTATCATAGATC
B2: genetic element with two Arc operators (dsDNA)
DNA 1: GATCTATGATAGAAGCACTCTACTATACTCATCACGAAACGGAGGATCTATGATAGAAGCACTCTACTAT
DNA 2: ATAGTAGAGTGCTTCTATCATAGATCCTCCGTTTCGTGATGAGTATAGTAGAGTGCTTCTATCATAGATC
B3: genetic element with three Arc operators (dsDNA)
DNA 1: GATCTATGATAGAAGCACTCTACTATACTCATCACGAAACGGAGGATCTATGATAGAAGCACTCTACTATACTCATCACGAAACGGAGGATCTATGATAGAAGCACTCTACTAT
DNA 2: ATAGTAGAGTGCTTCTATCATAGATCCTCCGTTTCGTGATGAGTATAGTAGAGTGCTTCTATCATAGATCCTCCGTTTCGTGATGAGTATAGTAGAGTGCTTCTATCATAGATC

Key:
[1] = molecular target: scFv(31IJ1)-(KEAAA)6-scArc-HA (Phage P22 / human scFv?); assay: recovery improves with operator number; conditions: tags: N-terminal scFv fusion, C-terminal HA; chain copies: 2 scArc per operator (inferred)
Procedure: In the solution expression experiments 3 µl of 1.7 nM PCR-amplified pIE7aA, pIE7a2A, pIE7a3A, pIE7a4A, pIE7aA-scFv(31IJ1), pIE7a2A-scFv(31 Ul), pIE7a3A-scFv (31IJ1) or pIE7a4A-scFv(31IJ1) template in 0.2 mg/ml tRNA is added to 25 µl EcoPro T7 in vitro translation mix (Novagen), supplemented with 0.75 µl of 100 mM oxidized glutathione (Sigma) and 0.25 µl […] 3F10 αHA mAb (Roche). Each reactions is split into three 9 µl aliquots. Two of the three in vitro translation aliquots of pIE7aA-scFv(31IJ1), pIE7a2A-scFv(31IJ1), pIE7a3A-scFv(31IJ1) or pIE-7a4A-scFv(31IJ1) are immediately combined with the aliquots of pIE7aA, pIE7a2A, pIE7a3A or pIE7a4A expression reactions respectively, one before and the other after the four-hour incubation at 25° C.
During the translation reaction the streptavidin-coated PCR tubes, cut from Strep Thermofast 96-well plates (Abgene), are first incubated at room temperature for three hours with 50 µl of at least 40 nM biotinylated protein A (Sigma), protein L (Pierce) fluorescein (Molecular Probes) of BSA (Sigma) in PBS. The coating buffer is thereafter removed and any remaining free biotin-binding sites are blocked with a 15 min pulse of 50 µg/ml biotinylated BSA in PBS. The pre-coated wells are thereafter three times washed with PBS and then filled with 100 µl of binding buffer C+ (100 mM KCl, 20 mM Tris, 5 mM MgCl2, 0.05% Tween 20, 0.05 mM EDTA, 1% BSA).
Upon completion of the translation reaction the products are diluted in Buffer C+ and applied to the pre-coated and blocked PCR tubes, allowed to bind for 30 min at room temperature and washed 4 times with 150 µl of Buffer C+. The retained genetic elements are amplified with PCR using a nested set of primers AS79/AS80 and a 30-cycle PCR protocol 30X60C2M. In 30X60C2M protocol 50 µl PCR reactions contain 200 µM each of dATP dTTP dGTP dCTP (Amersham), 300 nM forward and reverse primers AS13+ AS19 and 1 U of SuperTaq DNA polymerase (HT Biotechnology) in 1× polymerase Buffer (HT Biotechnology). […]

scArc-Vk(E5)-HA [2] = molecular target: T1, scArc-Vk(E5)-HA (Phage P22 / human Vk); assay: stable linkage even without anti-HA mAb; conditions: tags: C-terminal Vk(E5) dAb fusion, chain copies: 2 scArc per operator (stated)
Vk(E5)-scArc-HA [3] = molecular target: T2, Vk(E5)-scArc-HA (Phage P22 / human Vk); assay: recovery increases with operator number; complex stabilised by 3.4 nM anti-HA mAb 3F10; conditions: tags: N-terminal Vk(E5) dAb fusion, C-terminal HA; chain copies: 2 scArc per operator (stated)
Vk(E5)-scArc-HA [4] = molecular target: T2, Vk(E5)-scArc-HA; assay: recovery reaches plateau at 3-4 operators; conditions: tags: N-terminal Vk(E5) dAb fusion, C-terminal HA; chain copies: 2 scArc per operator (stated)
Procedure: (§1) Tubes from Strep Thermofast 96-well plates are coated by applying 2 µl of 0.05 mg/ml biotinylated rat anti-HA mAb (clone 3F10, Roche), 0.2 µl of 0.5 mg/ml biotinylated protein L (Pierce), 1 µl of biotinylated 1 mg/ml β-galactosidase or 0.1 µl of 5 mg/ml biotinylated BSA (Sigma) respectively in 50 µl aliquots of PBS and incubating for 3 hours at room temperature. The monoclonal high-affinity α-HA mAb 3F10 recognises the C-terminal HA tag, β-galactosidase and protein L can be expected to interact with the $V_\kappa$(E5) light chain domain, while BSA serves as the negative control. At the end of the incubation the coating solution is removed and the first blocking solution consisting of 150 µl of 10 ng/ml biotinylated BSA (Sigma) in PBS is added to the wells and incubated for 15 minutes. At the end of the incubation the wells are washed three times with 150 µl of PBS and blocked additionally for 30 min at room temperature with buffer C+.
(§2) 25 µl S30 in vitro translation reactions (EcoPro T7, Novagen) are assembled according to the manufacturer's instructions and supplemented with 1.5 µl of 1.7 mM PCR-amplified template in 0.1 mg/ml RNA and 0.75 µl of 100 mM oxidized glutathione. […]
(§3) The PCR amplification products are analysed by 1% agarose gel electrophoresis in TAE in the presence of ethidium bromide and imaged using GeneGeius Bio Imaging System (Syngene). […]

scArc-Vk(E5)-HA [5] = molecular target: T1, scArc-Vk(E5)-HA; assay: plateau at 3-4 operators; conditions: tags: C-terminal Vk(E5) dAb fusion, chain copies: 2 scArc per operator (stated)
Procedure: as §1, §2, §3

Binder | binding result [1] | binding result (scArc-Vk(E5)-HA [2]) | binding result (Vk(E5)-scArc-HA [3]) | binding result (Vk(E5)-scArc-HA [4]) | binding result (scArc-Vk(E5)-HA [5])
B1 | binds |  |  |  | 
B2 | binds | binds | binds |  | 
B3 | binds |  |  | binds | binds

Source: patent publication US8084213, “Selection” (Domantis Limited)
